B1: Protein pop-1 (Caenorhabditis elegans), Q10666 (parent)
chain: MMADEELGDEVKVFRRDEDADDDPMISGETSEQQLADDKKEAVMEAELDGAGRNPSIDVLKSAFPKVEPMSPSFPGLMSHFSPGYSAAALPMFMPLFMNPYAAALRSPSLMFPMGAMSPTFPMFPPSPVYGAAIAAAAAKQHFENMAPLNMRAGHPMNQMGMPPYMHPSSMAPQNVDRRAQGGGKAKKDDHVKKPLNAFMWFMKENRKALLEEIGNNEKQSAELNKELGKRWHDLSKEEQAKYFEMAKKDKETHKERYPEWSARENYAVNKKKTKKRRDKSIPSENNDQKKCRARFGVNNTEMWCKFCKRKKKCEYATDRSGGSDITDSQDGRGTSGAYSSSSESPSPKANAGIALTTQQQQAAMMHTMLMQMRLGSTTGASTHVPSPLASSSAGRSPLDANASDSESDVEEEEDEQIDPTVMQQTHDMLMQESMCTI
partner: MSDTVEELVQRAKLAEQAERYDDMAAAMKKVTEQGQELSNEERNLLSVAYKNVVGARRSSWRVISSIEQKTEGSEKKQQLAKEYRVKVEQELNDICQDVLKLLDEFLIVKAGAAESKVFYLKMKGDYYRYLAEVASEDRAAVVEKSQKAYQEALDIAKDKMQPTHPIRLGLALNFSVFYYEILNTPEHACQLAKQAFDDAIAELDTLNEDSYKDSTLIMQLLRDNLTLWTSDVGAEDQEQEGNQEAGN

The variants in the assay derive from B1. Particulars: with 14331_caeel par-5, P41932.
Take MMADEELGDEVKVFRRDEDADDDPMISGETSEQQLADDKKEAVMEAELDGAGRNPSIDVLKSAFPKVEPMSPSFPGLMSHFSPGYSAAALPMFMPLFMNPYAAALRAPALMFPMGAMAPAFPMFPPAPVYGAAIAAAAAKQHFENMAPLNMRAGHPMNQMGMPPYMHPSSMAPQNVDRRAQGGGKAKKDDHVKKPLNAFMWFMKENRKALLEEIGNNEKQSAELNKELGKRWHDLSKEEQAKYFEMAKKDKETHKERYPEWSARENYAVNKKKTKKRRDKSIPSENNDQKKCRARFGVNNTEMWCKFCKRKKKCEYATDRSGGSDITDSQDGRGTSGAYSSSSESPSPKANAGIALTTQQQQAAMMHTMLMQMRLGSTTGASTHVPSPLASSSAGRSPLDANASDSESDVEEEEDEQIDPTVMQQTHDMLMQESMCTI [S107A;S109A;S118A;T120A;S127A]: the “effect of a mutation on the interaction” value was “disrupting interaction”.
